Reference: PMC11871449

Target: TDP-43 RRMs (RRM1-RRM2) (UniProt Q13148)
Assay: EMSA (multiplexed)
Conditions: 20 mM Tris-HCl pH 7.5, 150 mM KCl, 5 mM MgCl2, 10% glycerol, 30 min, room temperature, 2 nM each labeled RNA (mEMSA), 5.5% TBE gel (4% for competition)
[1] = 5 mM Mg2+, fluorophore-UTP incorporated during transcription
[2] = 5 mM Mg2+, fluorophore-UTP incorporated during transcription (labeled form)

UniProt Q13148, sequence (Q13148 101-269): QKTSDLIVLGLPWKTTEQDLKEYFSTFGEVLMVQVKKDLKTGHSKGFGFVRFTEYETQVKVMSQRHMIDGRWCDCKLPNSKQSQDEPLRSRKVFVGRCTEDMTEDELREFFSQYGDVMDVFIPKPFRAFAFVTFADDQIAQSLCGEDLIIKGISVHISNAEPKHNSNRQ

Q: With “AACACCAUGCUGGUUAUUUUGGCGGCUGUAGUUGUGGGGGGAUGUGUGUGUGCACGUGUGUGUGUGUGUGUGUGUGUGUGUGUGUGUGUGUGUUCUGUGACCUCCUGUCCCCAUGGUACGUCCCACCCUGUCCCCAGAUCCCCUAUUCCCUCCACAAUAACAGAAACACUCCCAGGGACUCUGGGGAGAGGCUGAGGACAAAUACCUGCUGUCACUCCAGAGGACAUUUUUUUUAGCAAUAAAAUUGAG [SLC1A5[2620-2869] 3'UTR]” as the sequence, how does the Kd [1] read?
A: Its Kd is 82 nM.

Q: “AUCCCGCUGCUAUUAGAAUGCAUUGUGAAACGACUGGAGUAUGAUUAAAAGUUGUGUUCCCCAAUGCUUGGAGUAGUGAUUGUUGAAGGAAAAAAUCCAGCUGAGUGAUAAAGGCUGAGUGUUGAGGAAAUUUCUGCAGUUUUAAGCAGUCGUAUUUGUGAUUGAAGCUGAGUACAUUUUGCUGGUGUAUUUUUAGGUAAAAUGCUUUUUGUUCAUUUCUGGUGGUGGGAGGGGACUGAAGCCUUUAGUCUUUUCCAGAUGCAACCUUAAAAUCAGUGACAAGAAACAUUCCAAACAAGC [MALAT1[6638-6938]]” was tested. Which Kd (fluorophore-UTP incorporated during transcription) did it give?
A: The Kd was 127 nM.

Q: Which Kd [2] does the source give for “GAUUGAUGGUGGUGCCGAGGCAUGAAAGGCUAGUAUGAGCGAGAAAAGGAGAGAGCGCGUGCAGAGACUUGGUGGUGCAUAAUGGAUAUUUUUUAACUUGGCGAGAUGUGUCUCUCAAUCCUGUGGCUUUGGUGAGAGAGUGUGCG [TARDBP[2140-2283] 3'UTR]” here?
A: Its Kd is 272 nM.

Q: Which Kd [2] does the source give for “GCGAGGAGCCUUUCAUCCGAAGGCGGGACGAUGCCGGAUAAUCGGCAGCCGAGGAACCGGCAGCCGAGGAUCCGCUCCGGGAACGAGCCUCGUUCCGCGCCCGCCAUGGAACCGGAUGGUCGCGGUGCCUGGGCCCACAGUCGCGCCGCGCUCGACCGCCUGGAGAAGCUGCUGCGCUGCUCGCGUUGUACUAACAUUCUGAGAGAGCC [BARD1[86-310] negative control]” here?
A: The Kd was 1790 nM.

Q: How did the Kd [1] turn out when “GUGGGCUUUUCCAUUGUCCCCCUGGCCUCCAGGCUCCUCCUCUGCCUCUCCAUGGAGUGGGUGGGGAGGUGGUGGGGGCCGGCGUCCCCUGCGUGUGUGUGUGUGUGUGUGUGUGUGUGUGGAUGUAUUGACCUGUGUUUCCCAAGACAGCAGGUGCCACGGCCCGCCCCGCCUGCCAGCCCGAAUUCCCGUUCUCCUGUGUCUACUAACAAGGACGGAUCCAGCU [CSNK1E[2054-2264] 3'UTR]” was run?
A: Its Kd is 101 nM.

Q: Which Kd [1] does the source give for “UGGCUAUCCUUUAAUGAUGCGUGUGGAAUGUGUGUGUGUGCUCAGGCAAUUAUUUUGCUAAGAAUGUGAAUUCAAGUGCAGCUCAAUACUAGCUUCAGUAUAAAAACUGUACAGAUUUUUGUAUAGCUGAUAAGAUUCUCUGUAGAGAAAAUACUUUUAAAAAAUGCAGGUUGUAGCUUUUUGAUGGGCUACUCAUACAGUUAGAUUUUACAGCUUCUGAUGUUGAAUGUUCCUAAAUAUUUAAUGGUUUUUUUAAUUUCUUGUGUAUGGUAGCACAGCAAAGCUU [HMGB2[739-1022] 3'UTR]” here?
A: The Kd was 148 nM.
